The source of these data is PMC13100509, “A milestone in C4 carbon concentration mechanism evolution: structural remodeling of NADP-malic enzyme in Poaceae” (Molecular Biology and Evolution, 2026).

Several values for one entry are separate records, joined by “and”; a condition that tells them apart may be missing. Identical values can stand only once.

Data set [1] deals with C4 + 15 variant of maize C4-NADP-ME (maize (Zea mays)) (UniProt P16243). Description: native gel or EMSA; native PAGE (6% or 7%) of purified recombinant proteins, 100 V, 4 °C; Coomassie staining or in-gel NADP-ME activity assay; oligomeric state from mobility against native markers. (A gel shift assay detects complexes by their altered migration in electrophoresis.)
Data set [2] deals with maize Cyt2-NADP-ME, recombinant wild type (maize (Zea mays)). The description is as above.
Data set [3] concerns the target nonC4R171T mutant of maize nonC4-NADP-ME (maize (Zea mays)). Described as above.
Data set [4] deals with nonC4Δ15 variant of maize nonC4-NADP-ME (maize (Zea mays)). Described as above.
The target in data set [5] is plastidic nonC4-NADP-ME from maize extracts (maize (endogenous in maize etiolated leaves and roots)). Nature of the data set: native gel or EMSA; native PAGE (7%) of maize extracts of etiolated leaves and roots; in-gel NADP-ME activity assay, active bands excised and identified by mass spectrometry; mobility compared with the recombinant proteins.
Substrate in the data set “purified protein”: O=C(O)C[C@H](O)C(=O)O
Nature of the data set: purified protein. Type of data set: biochemical, Zea mays. As to conditions: pH 8.0, 25 °C, 0.5 mM NADP, 10 mM MgCl2.

Data set [6] concerns the molecule itself. Description: native gel or EMSA; native PAGE (6% or 7%) of purified recombinant proteins, 100 V, 4 °C; Coomassie staining or in-gel NADP-ME activity assay; oligomeric state from mobility against native markers.

In general, stoichiometry N refers to a count of units in the complex or per binding partner. For “C4 + 15 variant of maize C4-NADP-ME (from UniProt P16243 63-636) (enzyme)”, the stoichiometry N in data set [1] worked out at 4. As for “maize Cyt2-NADP-ME, recombinant wild type (enzyme)”, the stoichiometry N in data set [2] was determined as 4. On to “nonC4R171T mutant of maize nonC4-NADP-ME (enzyme)”, for which the stoichiometry N in data set [3] is 2 and 4. “nonC4Δ15 variant of maize nonC4-NADP-ME (enzyme)”: in data set [4], the stoichiometry N is 2. “plastidic nonC4-NADP-ME from maize extracts (enzyme)”: the stoichiometry N in data set [5] was 2.

B1: C4-NADP-ME (Zea mays) (protein)
chain: AMVSNAETETEKEQEEAAAASEELPVMPWATSVASGYTLLRDPHHNKGLAFTEEERDGHYLRGLLPPAVLSQELQIKKFMNTLRQYQTPLQRYIAMMNLQETDERLFYKLLIDNVVELLPFVYTPTVGEACQKYGSIFGRPQGLYVSLKDKGKVLEVLRNWPHRNIQVICVTDGERILGLGDLGCQGMGIPVGKLALYTALGGVDPSVCLPITIDVGTNNEFLLNDEFYIGLRQKRATGEEYDELIEEFMSAVKQFYGEKVLIQFEDFANHNAFDLLEKYSKSHLVFNDDIQGTASVVLAGLLAALKMVGGTLAEQTYLFLGAGEAGTGIAELIALEISKQTNAPIEECRKKVWLVDSKGLIVDSRKGSLQPFKKPWAHEHEPLKTLYDAVQSIKPTVLIGTSGVGRTFTKEIIEAMSSFNERPIIFSLSNPTSHSECTAEQAYTWSQGRSIFASGSPFAPVEYEGKTFVPGQSNNAYIFPGLGLGLVISGAVRVHEDMLLAASKALADQATQDNFEKGSIFPPFTSIRKISAHIAAAVAGKAYELGLATRLPPPSDLVKYAENCMYTPVYRNYR
notes: mature protein without transit peptide, E. coli, pET16b His-tag (Factor Xa site); homotetramer about 250 kDa
Usually Km stands for the concentration of substrate that gives half-maximal velocity. The kcat is the number of substrate molecules converted per active site and unit of time at saturation. Regarding B1, in “purified protein”, the Km was found to be 170 ± 20 µM and the kcat worked out at 67.5 ± 1.4 s⁻¹.

B2: C4-NADP-ME (Zea mays; G200R) (protein)
chain: AMVSNAETETEKEQEEAAAASEELPVMPWATSVASGYTLLRDPHHNKGLAFTEEERDGHYLRGLLPPAVLSQELQIKKFMNTLRQYQTPLQRYIAMMNLQETDERLFYKLLIDNVVELLPFVYTPTVGEACQKYGSIFRRPQGLYVSLKDKGKVLEVLRNWPHRNIQVICVTDGERILGLGDLGCQGMGIPVGKLALYTALGGVDPSVCLPITIDVGTNNEFLLNDEFYIGLRQKRATGEEYDELIEEFMSAVKQFYGEKVLIQFEDFANHNAFDLLEKYSKSHLVFNDDIQGTASVVLAGLLAALKMVGGTLAEQTYLFLGAGEAGTGIAELIALEISKQTNAPIEECRKKVWLVDSKGLIVDSRKGSLQPFKKPWAHEHEPLKTLYDAVQSIKPTVLIGTSGVGRTFTKEIIEAMSSFNERPIIFSLSNPTSHSECTAEQAYTWSQGRSIFASGSPFAPVEYEGKTFVPGQSNNAYIFPGLGLGLVISGAVRVHEDMLLAASKALADQATQDNFEKGSIFPPFTSIRKISAHIAAAVAGKAYELGLATRLPPPSDLVKYAENCMYTPVYRNYR
notes: as for B1
Regarding B2, in “purified protein”, the Km is 2450 ± 450 µM and the kcat came out at 21.6 ± 0.8 s⁻¹.

B3: C4N15GR variant of maize C4-NADP-ME (enzyme)
chain: AAGVVVEDHYGEDSASEELPVMPWATSVASGYTLLRDPHHNKGLAFTEEERDGHYLRGLLPPAVLSQELQIKKFMNTLRQYQTPLQRYIAMMNLQETDERLFYKLLIDNVVELLPFVYTPTVGEACQKYGSIFRRPQGLYVSLKDKGKVLEVLRNWPHRNIQVICVTDGERILGLGDLGCQGMGIPVGKLALYTALGGVDPSVCLPITIDVGTNNEKLLNDEFYIGLRQKRATGEEYDELIEEFMSAVKQFYGEKVLIQFEDFANHNAFDLLEKYSKSHLVFNDDIQGTASVVLAGLLAALKMVGGTLAEQTYLFLGAGEAGTGIAELIALEISKQTNAPIEECRKKVWLVDSKGLIVDSRKGSLQPFKKPWAHEHEPLKTLYDAVQSIKPTVLIGTSGVGRTFTKEIIEAMSSFNERPIIFSLSNPTSHSECTAEQAYTWSQGRSIFASGSPFAPVEYEGKTFVPGQSNNAYIFPGLGLGLVISGAVRVHEDMLLAASKALADQATQDNFEKGSIFPPFTSIRKISAHIAAAVAAKAYELGLATRLPPPSDLVKYAENCMYTPVYRNYR
B3: in data set [6], the “stoichiometry N” value is 2.

B4: C4NnC4GR variant of maize C4-NADP-ME (enzyme)
chain: AAEMEQEEAEVAAAAAGVVVEDHYGEDSASEELPVMPWATSVASGYTLLRDPHHNKGLAFTEEERDGHYLRGLLPPAVLSQELQIKKFMNTLRQYQTPLQRYIAMMNLQETDERLFYKLLIDNVVELLPFVYTPTVGEACQKYGSIFRRPQGLYVSLKDKGKVLEVLRNWPHRNIQVICVTDGERILGLGDLGCQGMGIPVGKLALYTALGGVDPSVCLPITIDVGTNNEKLLNDEFYIGLRQKRATGEEYDELIEEFMSAVKQFYGEKVLIQFEDFANHNAFDLLEKYSKSHLVFNDDIQGTASVVLAGLLAALKMVGGTLAEQTYLFLGAGEAGTGIAELIALEISKQTNAPIEECRKKVWLVDSKGLIVDSRKGSLQPFKKPWAHEHEPLKTLYDAVQSIKPTVLIGTSGVGRTFTKEIIEAMSSFNERPIIFSLSNPTSHSECTAEQAYTWSQGRSIFASGSPFAPVEYEGKTFVPGQSNNAYIFPGLGLGLVISGAVRVHEDMLLAASKALADQATQDNFEKGSIFPPFTSIRKISAHIAAAVAAKAYELGLATRLPPPSDLVKYAENCMYTPVYRNYR
Consider B4, for which the “stoichiometry N” value in data set [6] is 2.

B5: C4T163R mutant of maize C4-NADP-ME (enzyme, maize (Zea mays), UniProt P16243 63-636, looked up)
chain: MVSNAETETEKEQEEAAAASEELPVMPWATSVASGYTLLRDPHHNKGLAFTEEERDGHYLRGLLPPAVLSQELQIKKFMNTLRQYQTPLQRYIAMMNLQERDERLFYKLLIDNVVELLPFVYTPTVGEACQKYGSIFGRPQGLYVSLKDKGKVLEVLRNWPHRNIQVICVTDGERILGLGDLGCQGMGIPVGKLALYTALGGVDPSVCLPITIDVGTNNEFLLNDEFYIGLRQKRATGEEYDELIEEFMSAVKQFYGEKVLIQFEDFANHNAFDLLEKYSKSHLVFNDDIQGTASVVLAGLLAALKMVGGTLAEQTYLFLGAGEAGTGIAELIALEISKQTNAPIEECRKKVWLVDSKGLIVDSRKGSLQPFKKPWAHEHEPLKTLYDAVQSIKPTVLIGTSGVGRTFTKEIIEAMSSFNERPIIFSLSNPTSHSECTAEQAYTWSQGRSIFASGSPFAPVEYEGKTFVPGQSNNAYIFPGLGLGLVISGAVRVHEDMLLAASKALADQATQDNFEKGSIFPPFTSIRKISAHIAAAVAGKAYELGLATRLPPPSDLVKYAENCMYTPVYRNYR
notes: C4-NADP-malic enzyme (ZmC4-NADP-ME), plastidic C4 isoform of maize; source: E. coli Rosetta2 (DE3) or ArcticExpress (DE3), purified (Ni-NTA)
As for B5, in data set [6], the “stoichiometry N” value is 2 and 4.

B6: C4G200R mutant of maize C4-NADP-ME (enzyme, maize (Zea mays), UniProt P16243 63-636, looked up)
chain: MVSNAETETEKEQEEAAAASEELPVMPWATSVASGYTLLRDPHHNKGLAFTEEERDGHYLRGLLPPAVLSQELQIKKFMNTLRQYQTPLQRYIAMMNLQETDERLFYKLLIDNVVELLPFVYTPTVGEACQKYGSIFRRPQGLYVSLKDKGKVLEVLRNWPHRNIQVICVTDGERILGLGDLGCQGMGIPVGKLALYTALGGVDPSVCLPITIDVGTNNEFLLNDEFYIGLRQKRATGEEYDELIEEFMSAVKQFYGEKVLIQFEDFANHNAFDLLEKYSKSHLVFNDDIQGTASVVLAGLLAALKMVGGTLAEQTYLFLGAGEAGTGIAELIALEISKQTNAPIEECRKKVWLVDSKGLIVDSRKGSLQPFKKPWAHEHEPLKTLYDAVQSIKPTVLIGTSGVGRTFTKEIIEAMSSFNERPIIFSLSNPTSHSECTAEQAYTWSQGRSIFASGSPFAPVEYEGKTFVPGQSNNAYIFPGLGLGLVISGAVRVHEDMLLAASKALADQATQDNFEKGSIFPPFTSIRKISAHIAAAVAGKAYELGLATRLPPPSDLVKYAENCMYTPVYRNYR
notes: C4-NADP-malic enzyme (ZmC4-NADP-ME), plastidic C4 isoform of maize; also called C4-NADP-ME-G200R; source: E. coli Rosetta2 (DE3) or ArcticExpress (DE3), purified (Ni-NTA)
As for B6, the “stoichiometry N” value in data set [6] was found to be 2.

B7: C4D164N mutant of maize C4-NADP-ME (enzyme, maize (Zea mays), UniProt P16243 63-636, looked up)
chain: MVSNAETETEKEQEEAAAASEELPVMPWATSVASGYTLLRDPHHNKGLAFTEEERDGHYLRGLLPPAVLSQELQIKKFMNTLRQYQTPLQRYIAMMNLQETNERLFYKLLIDNVVELLPFVYTPTVGEACQKYGSIFGRPQGLYVSLKDKGKVLEVLRNWPHRNIQVICVTDGERILGLGDLGCQGMGIPVGKLALYTALGGVDPSVCLPITIDVGTNNEFLLNDEFYIGLRQKRATGEEYDELIEEFMSAVKQFYGEKVLIQFEDFANHNAFDLLEKYSKSHLVFNDDIQGTASVVLAGLLAALKMVGGTLAEQTYLFLGAGEAGTGIAELIALEISKQTNAPIEECRKKVWLVDSKGLIVDSRKGSLQPFKKPWAHEHEPLKTLYDAVQSIKPTVLIGTSGVGRTFTKEIIEAMSSFNERPIIFSLSNPTSHSECTAEQAYTWSQGRSIFASGSPFAPVEYEGKTFVPGQSNNAYIFPGLGLGLVISGAVRVHEDMLLAASKALADQATQDNFEKGSIFPPFTSIRKISAHIAAAVAGKAYELGLATRLPPPSDLVKYAENCMYTPVYRNYR
notes: as for B5
Consider B7, for which the “stoichiometry N” value in data set [6] was 2 and 4.

B8: C4Y632F mutant of maize C4-NADP-ME (enzyme, maize (Zea mays), UniProt P16243 63-636, looked up)
chain: MVSNAETETEKEQEEAAAASEELPVMPWATSVASGYTLLRDPHHNKGLAFTEEERDGHYLRGLLPPAVLSQELQIKKFMNTLRQYQTPLQRYIAMMNLQETDERLFYKLLIDNVVELLPFVYTPTVGEACQKYGSIFGRPQGLYVSLKDKGKVLEVLRNWPHRNIQVICVTDGERILGLGDLGCQGMGIPVGKLALYTALGGVDPSVCLPITIDVGTNNEFLLNDEFYIGLRQKRATGEEYDELIEEFMSAVKQFYGEKVLIQFEDFANHNAFDLLEKYSKSHLVFNDDIQGTASVVLAGLLAALKMVGGTLAEQTYLFLGAGEAGTGIAELIALEISKQTNAPIEECRKKVWLVDSKGLIVDSRKGSLQPFKKPWAHEHEPLKTLYDAVQSIKPTVLIGTSGVGRTFTKEIIEAMSSFNERPIIFSLSNPTSHSECTAEQAYTWSQGRSIFASGSPFAPVEYEGKTFVPGQSNNAYIFPGLGLGLVISGAVRVHEDMLLAASKALADQATQDNFEKGSIFPPFTSIRKISAHIAAAVAGKAYELGLATRLPPPSDLVKYAENCMYTPVFRNYR
notes: as for B5
Consider B8, for which, in data set [6], the binding result was “binds”.
